T1: TNFR1 (Homo sapiens, UniProt P19438)
T1 chain: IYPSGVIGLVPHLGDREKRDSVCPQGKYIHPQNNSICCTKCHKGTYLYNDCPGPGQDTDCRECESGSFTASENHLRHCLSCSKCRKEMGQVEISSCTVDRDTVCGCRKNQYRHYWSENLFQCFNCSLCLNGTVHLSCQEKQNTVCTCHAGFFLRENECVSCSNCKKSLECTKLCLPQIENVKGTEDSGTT


Biological target: T1, TNFR1
Assay: yeast display SC50

Binder | apparent Kd (screen)
I21R (designed binder) SMEEEVEKAAKEYEKKKKEAREKHLEKLKAKDKEAAERFLKELEEAAKEYAKDEAKTMSEEEAKRRAKKYKEKVLLSELSEEEQKEIKEAEEKLVRTILKYVEEAAK | 0.869 nM
E44N (designed binder) SMEEEVEKAAKEYEKKKKEAIEKHLEKLKAKDKEAAERFLKELNEAAKEYAKDEAKTMSEEEAKRRAKKYKEKVLLSELSEEEQKEIKEAEEKLVRTILKYVEEAAK | 1.05 nM
E5C (designed binder) SMEECVEKAAKEYEKKKKEAIEKHLEKLKAKDKEAAERFLKELEEAAKEYAKDEAKTMSEEEAKRRAKKYKEKVLLSELSEEEQKEIKEAEEKLVRTILKYVEEAAK | 1.05 nM
F39L (designed binder) SMEEEVEKAAKEYEKKKKEAIEKHLEKLKAKDKEAAERLLKELEEAAKEYAKDEAKTMSEEEAKRRAKKYKEKVLLSELSEEEQKEIKEAEEKLVRTILKYVEEAAK | 1.16 nM
H24N (designed binder) SMEEEVEKAAKEYEKKKKEAIEKNLEKLKAKDKEAAERFLKELEEAAKEYAKDEAKTMSEEEAKRRAKKYKEKVLLSELSEEEQKEIKEAEEKLVRTILKYVEEAAK | 0.446 nM
K29S (designed binder) SMEEEVEKAAKEYEKKKKEAIEKHLEKLSAKDKEAAERFLKELEEAAKEYAKDEAKTMSEEEAKRRAKKYKEKVLLSELSEEEQKEIKEAEEKLVRTILKYVEEAAK | 0.446 nM
E49F (designed binder) SMEEEVEKAAKEYEKKKKEAIEKHLEKLKAKDKEAAERFLKELEEAAKFYAKDEAKTMSEEEAKRRAKKYKEKVLLSELSEEEQKEIKEAEEKLVRTILKYVEEAAK | 9.41 nM
E60Y (designed binder) SMEEEVEKAAKEYEKKKKEAIEKHLEKLKAKDKEAAERFLKELEEAAKEYAKDEAKTMSYEEAKRRAKKYKEKVLLSELSEEEQKEIKEAEEKLVRTILKYVEEAAK | 0.718 nM
E49N (designed binder) SMEEEVEKAAKEYEKKKKEAIEKHLEKLKAKDKEAAERFLKELEEAAKNYAKDEAKTMSEEEAKRRAKKYKEKVLLSELSEEEQKEIKEAEEKLVRTILKYVEEAAK | 10.4 nM
A20N (designed binder) SMEEEVEKAAKEYEKKKKENIEKHLEKLKAKDKEAAERFLKELEEAAKEYAKDEAKTMSEEEAKRRAKKYKEKVLLSELSEEEQKEIKEAEEKLVRTILKYVEEAAK | 0.539 nM
E7W (designed binder) SMEEEVWKAAKEYEKKKKEAIEKHLEKLKAKDKEAAERFLKELEEAAKEYAKDEAKTMSEEEAKRRAKKYKEKVLLSELSEEEQKEIKEAEEKLVRTILKYVEEAAK | 12.5 nM
K56S (designed binder) SMEEEVEKAAKEYEKKKKEAIEKHLEKLKAKDKEAAERFLKELEEAAKEYAKDEASTMSEEEAKRRAKKYKEKVLLSELSEEEQKEIKEAEEKLVRTILKYVEEAAK | 7.78 nM
E60K (designed binder) SMEEEVEKAAKEYEKKKKEAIEKHLEKLKAKDKEAAERFLKELEEAAKEYAKDEAKTMSKEEAKRRAKKYKEKVLLSELSEEEQKEIKEAEEKLVRTILKYVEEAAK | 1.69 nM
S1E (designed binder) EMEEEVEKAAKEYEKKKKEAIEKHLEKLKAKDKEAAERFLKELEEAAKEYAKDEAKTMSEEEAKRRAKKYKEKVLLSELSEEEQKEIKEAEEKLVRTILKYVEEAAK | 0.49 nM
R38D (designed binder) SMEEEVEKAAKEYEKKKKEAIEKHLEKLKAKDKEAAEDFLKELEEAAKEYAKDEAKTMSEEEAKRRAKKYKEKVLLSELSEEEQKEIKEAEEKLVRTILKYVEEAAK | 3 nM
E42R (designed binder) SMEEEVEKAAKEYEKKKKEAIEKHLEKLKAKDKEAAERFLKRLEEAAKEYAKDEAKTMSEEEAKRRAKKYKEKVLLSELSEEEQKEIKEAEEKLVRTILKYVEEAAK | 7.78 nM
E19S (designed binder) SMEEEVEKAAKEYEKKKKSAIEKHLEKLKAKDKEAAERFLKELEEAAKEYAKDEAKTMSEEEAKRRAKKYKEKVLLSELSEEEQKEIKEAEEKLVRTILKYVEEAAK | 0.446 nM
K56N (designed binder) SMEEEVEKAAKEYEKKKKEAIEKHLEKLKAKDKEAAERFLKELEEAAKEYAKDEANTMSEEEAKRRAKKYKEKVLLSELSEEEQKEIKEAEEKLVRTILKYVEEAAK | 4.39 nM
K11N (designed binder) SMEEEVEKAANEYEKKKKEAIEKHLEKLKAKDKEAAERFLKELEEAAKEYAKDEAKTMSEEEAKRRAKKYKEKVLLSELSEEEQKEIKEAEEKLVRTILKYVEEAAK | 0.446 nM
V6D (designed binder) SMEEEDEKAAKEYEKKKKEAIEKHLEKLKAKDKEAAERFLKELEEAAKEYAKDEAKTMSEEEAKRRAKKYKEKVLLSELSEEEQKEIKEAEEKLVRTILKYVEEAAK | 13.8 nM
D32I (designed binder) SMEEEVEKAAKEYEKKKKEAIEKHLEKLKAKIKEAAERFLKELEEAAKEYAKDEAKTMSEEEAKRRAKKYKEKVLLSELSEEEQKEIKEAEEKLVRTILKYVEEAAK | 4.83 nM
A36R (designed binder) SMEEEVEKAAKEYEKKKKEAIEKHLEKLKAKDKEARERFLKELEEAAKEYAKDEAKTMSEEEAKRRAKKYKEKVLLSELSEEEQKEIKEAEEKLVRTILKYVEEAAK | 0.718 nM
A51Y (designed binder) SMEEEVEKAAKEYEKKKKEAIEKHLEKLKAKDKEAAERFLKELEEAAKEYYKDEAKTMSEEEAKRRAKKYKEKVLLSELSEEEQKEIKEAEEKLVRTILKYVEEAAK | 0.49 nM
E22Y (designed binder) SMEEEVEKAAKEYEKKKKEAIYKHLEKLKAKDKEAAERFLKELEEAAKEYAKDEAKTMSEEEAKRRAKKYKEKVLLSELSEEEQKEIKEAEEKLVRTILKYVEEAAK | 1.27 nM

The remaining lines, values ahead:

apparent Kd (screen) | Binder
3 nM | L76W (designed binder) SMEEEVEKAAKEYEKKKKEAIEKHLEKLKAKDKEAAERFLKELEEAAKEYAKDEAKTMSEEEAKRRAKKYKEKVLWSELSEEEQKEIKEAEEKLVRTILKYVEEAAK
13.8 nM | K73T (designed binder) SMEEEVEKAAKEYEKKKKEAIEKHLEKLKAKDKEAAERFLKELEEAAKEYAKDEAKTMSEEEAKRRAKKYKETVLLSELSEEEQKEIKEAEEKLVRTILKYVEEAAK
8.56 nM | Y70L (designed binder) SMEEEVEKAAKEYEKKKKEAIEKHLEKLKAKDKEAAERFLKELEEAAKEYAKDEAKTMSEEEAKRRAKKLKEKVLLSELSEEEQKEIKEAEEKLVRTILKYVEEAAK
16.7 nM | V74A (designed binder) SMEEEVEKAAKEYEKKKKEAIEKHLEKLKAKDKEAAERFLKELEEAAKEYAKDEAKTMSEEEAKRRAKKYKEKALLSELSEEEQKEIKEAEEKLVRTILKYVEEAAK
10.4 nM | V102F (designed binder) SMEEEVEKAAKEYEKKKKEAIEKHLEKLKAKDKEAAERFLKELEEAAKEYAKDEAKTMSEEEAKRRAKKYKEKVLLSELSEEEQKEIKEAEEKLVRTILKYFEEAAK
0.49 nM | K88H (designed binder) SMEEEVEKAAKEYEKKKKEAIEKHLEKLKAKDKEAAERFLKELEEAAKEYAKDEAKTMSEEEAKRRAKKYKEKVLLSELSEEEQKEIHEAEEKLVRTILKYVEEAAK
0.956 nM | K85M (designed binder) SMEEEVEKAAKEYEKKKKEAIEKHLEKLKAKDKEAAERFLKELEEAAKEYAKDEAKTMSEEEAKRRAKKYKEKVLLSELSEEEQMEIKEAEEKLVRTILKYVEEAAK
22.2 nM | R66F (designed binder) SMEEEVEKAAKEYEKKKKEAIEKHLEKLKAKDKEAAERFLKELEEAAKEYAKDEAKTMSEEEAKRFAKKYKEKVLLSELSEEEQKEIKEAEEKLVRTILKYVEEAAK
2.48 nM | R96F (designed binder) SMEEEVEKAAKEYEKKKKEAIEKHLEKLKAKDKEAAERFLKELEEAAKEYAKDEAKTMSEEEAKRRAKKYKEKVLLSELSEEEQKEIKEAEEKLVFTILKYVEEAAK
9.41 nM | I87E (designed binder) SMEEEVEKAAKEYEKKKKEAIEKHLEKLKAKDKEAAERFLKELEEAAKEYAKDEAKTMSEEEAKRRAKKYKEKVLLSELSEEEQKEEKEAEEKLVRTILKYVEEAAK
0.446 nM | K85W (designed binder) SMEEEVEKAAKEYEKKKKEAIEKHLEKLKAKDKEAAERFLKELEEAAKEYAKDEAKTMSEEEAKRRAKKYKEKVLLSELSEEEQWEIKEAEEKLVRTILKYVEEAAK

Reference: article PMC12416549 (2024)
